The target in this assay is SARS-CoV-2 RBD (residues 319-541), ancestral strain (SARS-CoV-2, UniProt P0DTC2 319-541). In words: BLI.

B1: GAR12, human IgG1 monoclonal antibody (antibody, V domains shown)
VH: EVQLVQSGGGLVQPGGSLRLSCAASGFTFSSYAMSWVRQAPGKGLEWVLSISGSGGSTYYADSVKGRFTISIDNSKKTVYLQMNSLRAEDTAVYYCAKSGEQQLVQAEYFHHWGQGTLVTVSS
VL: DIQMTQSPSTLSASVGDRVTITCRASQSIGRWLAWYQQKPGKAPKLLIYDASSLESGVPSRFSGSGFGTEFTLTISSLQPDDFATYYCQQCDSLLTFGGGTKLEIK
modifications: biotin (EZ-Link NHS-PEG4-Biotin, 10:1) where loaded on the sensor
Regarding B1, the Kd (usually the concentration at which binding is half-saturated) worked out at 0.2 nM.

B2: GAR03, human IgG1 monoclonal antibody (antibody, V domains shown)
VH: QVQLVQSGAEVKKPGASVKVSCKASGYTFSSYDINWVRQAPGQGLEWMGWMSPNSGNTGYAQKFQGRVTMTRSTSMSTAYMELSSLRSEDTAVYFCARMSSSLTNYLDYWGQGTLVTVSS
VL: SYVLTQPPSVAVAPGQTARIRCGENDIGSKNVHWYQQKSGQAPVLVVYDDSDRPSGIPERFSGSNSGNTATLTISRVEAGDEADYYCQVWDSTGDHPDVVFGGGTKLTVL
modifications: biotin (EZ-Link NHS-PEG4-Biotin, 10:1) where loaded on the sensor
The molecule B2 returned a Kd of 0.31 nM.

The values are drawn from publication PMC9907207 (2023).
